{
  "source": "patent US20130123462A1",
  "about": "(INDIANA UNIVERSITY RESEARCH AND TECHNOLOGY, published 2013)",
  "binders": {"B1": {"name": "[E9, E16K20(lactam), D28]G(4~29) (peptide)", "peptide": "GTFTSEYSKYLDERRAKDFVQWLMDT-NH2", "modifications": "lactam 13-17; N-terminus assumed", "SMILES": "CSCC[C@H](NC(=O)[C@H](CC(C)C)NC(=O)[C@H](Cc1c[nH]c2ccccc12)NC(=O)[C@H](CCC(N)=O)NC(=O)[C@@H](NC(=O)[C@H](Cc1ccccc1)NC(=O)[C@H](CC(=O)O)NC(=O)[C@@H]1CCCCNC(=O)CC[C@H](NC(=O)[C@H](CC(=O)O)NC(=O)[C@H](CC(C)C)NC(=O)[C@H](Cc2ccc(O)cc2)NC(=O)[C@H](CCCCN)NC(=O)[C@H](CO)NC(=O)[C@H](Cc2ccc(O)cc2)NC(=O)[C@H](CCC(=O)O)NC(=O)[C@H](CO)NC(=O)[C@@H](NC(=O)[C@H](Cc2ccccc2)NC(=O)[C@@H](NC(=O)CN)[C@@H](C)O)[C@@H](C)O)C(=O)N[C@@H](CCCNC(=N)N)C(=O)N[C@@H](CCCNC(=N)N)C(=O)N[C@@H](C)C(=O)N1)C(C)C)C(=O)N[C@@H](CC(=O)O)C(=O)N[C@H](C(N)=O)[C@@H](C)O"}, "B2": {"name": "[PLA6, D9, E16, K20E24(Lactam), D28]G(6-29) (peptide)", "peptide": "[PhLac]TSDYSKYLDERRAKDFVEWLMDT-NH2", "modifications": "lactam 15-19; N-terminus assumed", "SMILES": "CSCC[C@H](NC(=O)[C@H](CC(C)C)NC(=O)[C@H](Cc1c[nH]c2ccccc12)NC(=O)[C@@H]1CCC(=O)NCCCC[C@H](NC(=O)[C@H](C)NC(=O)[C@H](CCCNC(=N)N)NC(=O)[C@H](CCCNC(=N)N)NC(=O)[C@H](CCC(=O)O)NC(=O)[C@H](CC(=O)O)NC(=O)[C@H](CC(C)C)NC(=O)[C@H](Cc2ccc(O)cc2)NC(=O)[C@H](CCCCN)NC(=O)[C@H](CO)NC(=O)[C@H](Cc2ccc(O)cc2)NC(=O)[C@H](CC(=O)O)NC(=O)[C@H](CO)NC(=O)[C@@H](NC(=O)[C@@H](O)Cc2ccccc2)[C@@H](C)O)C(=O)N[C@@H](CC(=O)O)C(=O)N[C@@H](Cc2ccccc2)C(=O)N[C@@H](C(C)C)C(=O)N1)C(=O)N[C@@H](CC(=O)O)C(=O)N[C@H](C(N)=O)[C@@H](C)O"}, "B3": {"name": "[PLA6, D9, K12E16(Lactam), D28]G(6-29) (peptide)", "peptide": "[PhLac]TSDYSKYLDERRAQDFVQWLMDT-NH2", "modifications": "lactam 7-11; N-terminus assumed", "SMILES": "CSCC[C@H](NC(=O)[C@H](CC(C)C)NC(=O)[C@H](Cc1c[nH]c2ccccc12)NC(=O)[C@H](CCC(N)=O)NC(=O)[C@@H](NC(=O)[C@H](Cc1ccccc1)NC(=O)[C@H](CC(=O)O)NC(=O)[C@H](CCC(N)=O)NC(=O)[C@H](C)NC(=O)[C@H](CCCNC(=N)N)NC(=O)[C@H](CCCNC(=N)N)NC(=O)[C@@H]1CCC(=O)NCCCC[C@H](NC(=O)[C@H](CO)NC(=O)[C@H](Cc2ccc(O)cc2)NC(=O)[C@H](CC(=O)O)NC(=O)[C@H](CO)NC(=O)[C@@H](NC(=O)[C@@H](O)Cc2ccccc2)[C@@H](C)O)C(=O)N[C@@H](Cc2ccc(O)cc2)C(=O)N[C@@H](CC(C)C)C(=O)N[C@@H](CC(=O)O)C(=O)N1)C(C)C)C(=O)N[C@@H](CC(=O)O)C(=O)N[C@H](C(N)=O)[C@@H](C)O"}, "B4": {"name": "[A2E3, E16K20(Lactam), D28]G(1~29) (peptide)", "peptide": "HAEGTFTSEYSKYLDERRAKDFVQWLMDT-NH2", "modifications": "lactam 16-20; N-terminus assumed", "SMILES": "CSCC[C@H](NC(=O)[C@H](CC(C)C)NC(=O)[C@H](Cc1c[nH]c2ccccc12)NC(=O)[C@H](CCC(N)=O)NC(=O)[C@@H](NC(=O)[C@H](Cc1ccccc1)NC(=O)[C@H](CC(=O)O)NC(=O)[C@@H]1CCCCNC(=O)CC[C@H](NC(=O)[C@H](CC(=O)O)NC(=O)[C@H](CC(C)C)NC(=O)[C@H](Cc2ccc(O)cc2)NC(=O)[C@H](CCCCN)NC(=O)[C@H](CO)NC(=O)[C@H](Cc2ccc(O)cc2)NC(=O)[C@H](CCC(=O)O)NC(=O)[C@H](CO)NC(=O)[C@@H](NC(=O)[C@H](Cc2ccccc2)NC(=O)[C@@H](NC(=O)CNC(=O)[C@H](CCC(=O)O)NC(=O)[C@H](C)NC(=O)[C@@H](N)Cc2c[nH]cn2)[C@@H](C)O)[C@@H](C)O)C(=O)N[C@@H](CCCNC(=N)N)C(=O)N[C@@H](CCCNC(=N)N)C(=O)N[C@@H](C)C(=O)N1)C(C)C)C(=O)N[C@@H](CC(=O)O)C(=O)N[C@H](C(N)=O)[C@@H](C)O"}, "B5": {"name": "[PLA6, D9, E16, E24K28(lactam)]G(6~29) (peptide)", "peptide": "[PhLac]TSDYSKYLDERRAQDFVEWLMKT-NH2", "modifications": "lactam 19-23; N-terminus assumed", "SMILES": "CSCC[C@@H]1NC(=O)[C@H](CC(C)C)NC(=O)[C@H](Cc2c[nH]c3ccccc23)NC(=O)[C@@H](NC(=O)[C@@H](NC(=O)[C@H](Cc2ccccc2)NC(=O)[C@H](CC(=O)O)NC(=O)[C@H](CCC(N)=O)NC(=O)[C@H](C)NC(=O)[C@H](CCCNC(=N)N)NC(=O)[C@H](CCCNC(=N)N)NC(=O)[C@H](CCC(=O)O)NC(=O)[C@H](CC(=O)O)NC(=O)[C@H](CC(C)C)NC(=O)[C@H](Cc2ccc(O)cc2)NC(=O)[C@H](CCCCN)NC(=O)[C@H](CO)NC(=O)[C@H](Cc2ccc(O)cc2)NC(=O)[C@H](CC(=O)O)NC(=O)[C@H](CO)NC(=O)[C@@H](NC(=O)[C@@H](O)Cc2ccccc2)[C@@H](C)O)C(C)C)CCC(=O)NCCCC[C@@H](C(=O)N[C@H](C(N)=O)[C@@H](C)O)NC1=O"}},
  "experiment_in_all_cases": "cell-based or functional assay",
  "key": {"GLP-1 receptor [1]": {"target": "T1, GLP-1 receptor (UniProt P43220 24-463, limits assumed)"}, "glucagon receptor [2]": {"target": "T2, glucagon receptor (UniProt P47871 26-477, limits assumed)", "T2 sequence (P47871 26-477 limits assumed)": "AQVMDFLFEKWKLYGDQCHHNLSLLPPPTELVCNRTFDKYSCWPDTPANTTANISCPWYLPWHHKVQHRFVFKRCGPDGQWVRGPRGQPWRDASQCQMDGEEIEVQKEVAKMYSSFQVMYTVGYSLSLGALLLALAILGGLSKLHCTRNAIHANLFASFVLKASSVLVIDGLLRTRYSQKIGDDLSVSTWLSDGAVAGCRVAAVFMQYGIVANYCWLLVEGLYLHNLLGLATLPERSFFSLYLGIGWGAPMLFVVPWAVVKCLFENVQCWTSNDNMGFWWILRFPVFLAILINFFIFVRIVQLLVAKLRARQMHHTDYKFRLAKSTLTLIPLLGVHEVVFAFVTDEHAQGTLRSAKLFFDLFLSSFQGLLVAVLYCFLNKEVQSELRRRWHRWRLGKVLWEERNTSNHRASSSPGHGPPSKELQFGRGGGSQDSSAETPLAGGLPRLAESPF"}, "GLP-1 receptor [3]": {"target": "T1, GLP-1 receptor", "remark": "listed apart in the source"}, "glucagon receptor [4]": {"target": "T2, glucagon receptor", "remark": "listed apart in the source"}, "GLP-1 receptor [5]": {"target": "T1, GLP-1 receptor", "remark": "listed apart in the source"}, "glucagon receptor [6]": {"target": "T2, glucagon receptor", "remark": "listed apart in the source"}},
  "note": "Read-outs that look alike come from different tables or passages of the source. Bridges are numbered along the chain shown (N, C = ends). Where no end group is shown, it is not given here. [ ]: non-standard residue; d: D form. PhLac = O=C(O)[C@@H](O)Cc1ccccc1",
  "data": [
    {"binder": "HSQGTFTSDYARYLDARRAREFIKWLVRGRG", "note": "[ANK2 (Bayer peptide)]", "values": [
      {"measurement": "GLP-1 EC50", "setting": "GLP-1 receptor [1]", "value": 0.28, "unit": "nM"}
    ]},
    {"binder": "AEGTFTSEYSKYLDERRAKDFVQWLMDT-NH2 (lactam 15-19)", "note": "[[A2E3, E16K20(Lactam), D28]G(2~29)]", "values": [
      {"measurement": "Glucagon IC50", "setting": "glucagon receptor [2]", "value": 63, "unit": "nM"}
    ]},
    {"binder": "B1", "values": [
      {"measurement": "GLP-1 EC50", "setting": "GLP-1 receptor [1]", "value": 151, "unit": "nM"},
      {"measurement": "Glucagon IC50", "setting": "glucagon receptor [2]", "value": "10 to 30", "unit": "nM"}
    ]},
    {"binder": "B2", "values": [
      {"measurement": "GLP-1 EC50", "setting": "GLP-1 receptor [1]", "value": 239, "unit": "nM"},
      {"measurement": "Glucagon IC50", "setting": "glucagon receptor [2]", "value": 74, "unit": "nM"}
    ]},
    {"binder": "[PhLac]TSDYSKYLDERRAKDFVQWLMDT-NH2 (lactam 11-15)", "note": "[[PLA6, D9, E16K20(lactam), D28]G(6-29)]", "values": [
      {"measurement": "GLP-1 EC50", "setting": "GLP-1 receptor [3]", "value": 4, "unit": "nM"},
      {"measurement": "Glucagon IC50", "setting": "glucagon receptor [4]", "value": 6, "unit": "nM"},
      {"measurement": "Glucagon IC50", "setting": "glucagon receptor [2]", "value": "10 to 30", "unit": "nM"}
    ]},
    {"binder": "[PhLac]TSEYSKYLDERRAQDFVQWLMNTGPSSGAPPPS (lactam 7-11; not fully specified)", "note": "[[PLA6, E9, K12E16(Lactam)] Cex glucagon(6-39) (Table 13, peptide 5)]", "values": [
      {"measurement": "GLP-1 EC50", "setting": "GLP-1 receptor [5]", "value": 6, "unit": "nM"},
      {"measurement": "Glu IC50", "setting": "glucagon receptor [6]", "value": 72, "unit": "nM"}
    ]},
    {"binder": "FTSDYSKYLDERRAQDFVQWLMNTGPSSGAPPPS (lactam 7-11; not fully specified)", "note": "[D9, K12E16(Lactam) Cex glucagon(6-39) (Table 13, peptide 4)]", "values": [
      {"measurement": "GLP-1 EC50 (column without a head in this part of Table 15)", "setting": "GLP-1 receptor [3]", "value": 18, "unit": "nM"},
      {"measurement": "GLP-1 EC50", "setting": "GLP-1 receptor [5]", "value": 119, "unit": "nM"},
      {"measurement": "Glu IC50", "setting": "glucagon receptor [6]", "value": 828, "unit": "nM"}
    ]},
    {"binder": "FTSEYSKYLDERRAQDFVQWLMNTGPSSGAPPPS (lactam 7-11)", "note": "[E9, K12E16(lactam) Cex glucagon(6-39) (Table 13, peptide 2)]", "values": [
      {"measurement": "GLP-1 EC50", "setting": "GLP-1 receptor [5]", "value": 63, "unit": "nM"},
      {"measurement": "Glu IC50", "setting": "glucagon receptor [6]", "value": 2010, "unit": "nM"}
    ]},
    {"binder": "FTSEYSKYLDERRAKDFVQWLMNTGPSSGAPPPS (lactam 11-15)", "note": "[E9, E16K20(lactam) Cex glucagon(6-39) (Table 13, peptide 3)]", "values": [
      {"measurement": "GLP-1 EC50", "setting": "GLP-1 receptor [5]", "value": 36, "unit": "nM"},
      {"measurement": "Glu IC50", "setting": "glucagon receptor [6]", "value": 42, "unit": "nM"}
    ]},
    {"binder": "FTSEYSKYLDERRAQDFVQWLMNTGPSSGAPPPS", "note": "[E9, K12, E16 Cex glucagon(6-39) (Table 13, peptide 1)]", "values": [
      {"measurement": "Glu IC50", "setting": "glucagon receptor [6]", "value": 762, "unit": "nM"}
    ]},
    {"binder": "B3", "values": [
      {"measurement": "GLP-1 EC50", "setting": "GLP-1 receptor [3]", "value": 21, "unit": "nM"},
      {"measurement": "Glucagon IC50", "setting": "glucagon receptor [4]", "value": 13, "unit": "nM"},
      {"measurement": "GLP-1 EC50", "setting": "GLP-1 receptor [1]", "value": 177, "unit": "nM"},
      {"measurement": "Glucagon IC50", "setting": "glucagon receptor [2]", "value": 63, "unit": "nM"}
    ]},
    {"binder": "FTSDYSKYLDSRRAQDFVQWLMDT (first residue is phenyl lactic acid (PLA))", "note": "[PLA 6, D9, D28 glucagon D9(6-29) analog (Table 15, peptide 7)]", "values": [
      {"measurement": "GLP-1 EC50", "setting": "GLP-1 receptor [3]", "value": "~700", "unit": "nM"}
    ]},
    {"binder": "B4", "values": [
      {"measurement": "GLP-1 EC50", "setting": "GLP-1 receptor [1]", "value": 0.2, "unit": "nM"},
      {"measurement": "Glucagon IC50 (PA = partial antagonist)", "setting": "glucagon receptor [2]", "value": 130, "unit": "nM"}
    ]},
    {"binder": "B5", "values": [
      {"measurement": "GLP-1 EC50", "setting": "GLP-1 receptor [1]", "value": 289, "unit": "nM"},
      {"measurement": "Glucagon IC50", "setting": "glucagon receptor [2]", "value": 22, "unit": "nM"}
    ]}
  ]
}
